Test results as given in patent publication US20060110796A1.

How the values were obtained:
[1] = target: glycomyoglobin with β-GlcNAc-serine at position 4 (Gly4TAG mutant myoglobin, C-terminal His6 tag) (UniProt P02185); test: ELISA-like lectin binding assay; 200 ng myoglobin immobilized, biotinylated BSII, streptavidin-alkaline phosphatase, pNPP, A405
[2] = target: glycomyoglobin with GalNAc-α-threonine at position 4 (myoglobin 4TAG mutant, C-terminal 6xHis tag) (UniProt P02185); test: enzyme-linked lectin-binding assay (ELLA); 600 ng myoglobin on plate, biotinylated lectin 10 µg/mL, streptavidin-AP, pNPP, 405 nm; reference is an equivalent concentration of tyrosine-myoglobin
Chain of glycomyoglobin with GalNAc-α-threonine at position 4 (myoglobin 4TAG mutant, C-terminal 6xHis tag) (P02185 other isoform, or with tags, fused parts or gaps mutant): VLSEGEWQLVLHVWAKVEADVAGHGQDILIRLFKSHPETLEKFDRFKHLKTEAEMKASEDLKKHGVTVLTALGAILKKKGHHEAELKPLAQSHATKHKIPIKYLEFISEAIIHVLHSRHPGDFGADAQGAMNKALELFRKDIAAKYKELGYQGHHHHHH

Chain of Vicia Villosa lectin (VVL), biotinylated conjugate (P56625 whole entry): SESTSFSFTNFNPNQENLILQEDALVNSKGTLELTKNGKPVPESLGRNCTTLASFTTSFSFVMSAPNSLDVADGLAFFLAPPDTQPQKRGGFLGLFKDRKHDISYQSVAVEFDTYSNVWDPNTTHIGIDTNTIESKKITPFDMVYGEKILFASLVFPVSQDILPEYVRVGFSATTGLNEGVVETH
Chain of glycomyoglobin with β-GlcNAc-serine at position 4 (Gly4TAG mutant myoglobin, C-terminal His6 tag) (P02185 other isoform, or with tags, fused parts or gaps mutant): as the sequence (P02185 other isoform, or with tags, fused parts or gaps mutant) above

fold signal over wild-type myoglobin [1] | fold signal increase for glycomyoglobin versus tyrosine-myoglobin [2] | Substance
> 200 fold | – | Bandeiraea simplicifolia II (BSII) lectin, biotinylated
– | 5 fold | Dolichos Biflorus lectin (DBL), biotinylated conjugate (from UniProt P05045 23-275)
– | 10 fold | Vicia Villosa lectin (VVL), biotinylated conjugate (from UniProt P56625 1-185)
